Measurements: patent publication US20080286803A1 (NEDERLANDSE ORGANISATIE VOOR TOEGEPAST …, published 2008)

Biological target: wild-type pro-urokinase (natural activation site Pro-Arg-Phe-Lys-Ile-Ile-Gly-Gly) (human, UniProt P00749 21-431)
Test: cell-based or functional assay

absorbance change at 405 nm (activation of pro-urokinase, read with pyro-Glu-Gly-Arg-pNA): ~2 fold
B1: purified recombinant MASP-2 (active form) (enzyme, UniProt O00187 16-686, looked up)
chain: TPLGPKWPEPVFGRLASPGFPGEYANDQERRWTLTAPPGYRLRLYFTHFDLELSHLCEYDFVKLSSGAKVLATLCGQESTDTERAPGKDTFYSLGSSLDITFRSDYSNEKPFTGFEAFYAAEDIDECQVAPGEAPTCDHHCHNHLGGFYCSCRAGYVLHRNKRTCSALCSGQVFTQRSGELSSPEYPRPYPKLSSCTYSISLEEGFSVILDFVESFDVETHPETLCPYDFLKIQTDREEHGPFCGKTLPHRIETKSNTVTITFVTDESGDHTGWKIHYTSTAQPCPYPMAPPNGHVSPVQAKYILKDSFSIFCETGYELLQGHLPLKSFTAVCQKDGSWDRPMPACSIVDCGPPDDLPSGRVEYITGPGVTTYKAVIQYSCEETFYTMKVNDGKYVCEADGFWTSSKGEKSLPVCEPVCGLSARTTGGRIYGGQKAKPGDFPWQVLILGGTTAAGALLYDNWVLTAAHAVYEQKHDASALDIRMGTLKRLSPHYTQAWSEAVFIHEGYTHDAGFDNDIALIKLNNKVVINSNITPICLPRKEAESFMRTDDIGTASGWGLTQRGFLARNLMYVDIPIVDHQKCTAAYEKPPYPRGSVTANMLCAGLESGGKDSCRGDSGGALVFLDSETERWFVGGIVSWGSMNCGEAGQYGVYTKVINYIPWIENIISDF
